According to paper doi:10.1101/790931, “Pal stabilises the bacterial outer membrane during constriction by a mobilisation-and-capture mechanism” (bioRxiv, 2019):
No end group written: not given here.

Molecular target: T1, C-terminal domain of Pseudomonas aeruginosa TolA (TolA^224-347) (Pseudomonas aeruginosa, UniProt P50600 224-347)
T1 construct: TolA, Pseudomonas aeruginosa, C-terminal domain, residues 224-347; Uniformly 15N- or 13C/15N-labelled for the NMR experiments, unlabelled for fluorescence anisotropy; also called wild-type TolA (residues 224-347); C-terminal domain of TolA; not shown: His tag, N-terminal, cleaved; Im9, N-terminal, cleaved
T1 sequence (looked up): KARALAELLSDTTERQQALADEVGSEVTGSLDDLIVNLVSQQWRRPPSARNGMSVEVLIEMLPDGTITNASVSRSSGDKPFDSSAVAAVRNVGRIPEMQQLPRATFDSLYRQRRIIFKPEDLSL
Experiment: NMR titration; TolB peptide added to 0.6 mM 15N-labelled TolA; 1H,15N-HSQC; 20 mM phosphate, 100 mM NaCl, pH 7.6; slow exchange, ratio of bound and free peak volumes; fits for Ser271, Ser306, Gly316, Leu347
Settings: both partners purified

B1: P. aeruginosa TolB[22-34] peptide (the TolA box) (peptide)
peptide: ADPLVISSGNDRA-NH2
notes: TolB, Pseudomonas aeruginosa, residues 22-34, the N-terminus of secreted TolB; also called TolB[22-33]; (in supplementary legends); N-terminus of TolB; source: synthetic peptide (thinkpeptides UK (ProImmune))
**Q.** Which Kd does the source give for B1 here?
**A.** 220 µM
